Assays:
[1] = target: Mesoplasma florum ribonucleotide reductase protein R2 (MfR2), active form with meta-hydroxylated Tyr126 (DOPA) (Mesoplasma florum); experiment: crystal structure
[2] = target: Mesoplasma florum ribonucleotide reductase protein R2 (MfR2), inactive form with unmodified Tyr126 (Mesoplasma florum); experiment: crystal structure

Row | stoichiometry N [1] | stoichiometry N [2] | Substance
1 | 2 | – | Mesoplasma florum ribonucleotide reductase protein R2 (MfR2), active form with meta-hydroxylated Tyr126 (DOPA) (enzyme)
2 | – | 2 | Mesoplasma florum ribonucleotide reductase protein R2 (MfR2), inactive form with unmodified Tyr126 (enzyme)
